Results reported in the supplement of paper PMC9732359.
± gives the uncertainty stated by the source.

Assay: protein stability index of a GFP-peptide fusion (yeast GPS) (PSI 1-4); higher = more stable; sorted into four equal gates, so the index is relative within each strain
Procedure, shortened: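 Plasmids in a pooled yeast library fused tiled 17-residue yeast protein peptides downstream of GFP and also expressed Cherry. Mid-log cultures grown without leucine were sorted into four equal gates by GFP/Cherry fluorescence ratio. Each gate's plasmids were PCR-amplified and Illumina-sequenced, and reads were matched to strains by barcodes. The protein stability index is derived by multiplying each gate's read frequency by its gate number and summing the results.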

Sequence: TIAKQVLNGQKIVVVRA [RPL16B]
- protein stability index (doa10∆): 3.04 ± 0.19
- protein stability index (pdr5∆): 2.9 ± 0.13
- protein stability index (ubr1∆): 2.6 ± 0.14

Sequence: TIFKYLTDKDAFETHYR [CDC53]
- protein stability index (doa10∆): 3.27 ± 0.11
- protein stability index (pdr5∆): 3.12 ± 0.086
- protein stability index (san1∆): 3.09 ± 0.049
- protein stability index (ubr1∆): 2.98 ± 0.061

Sequence: TIISPHKDIPEEDFYTV [DSN1]
- protein stability index (doa10∆): 3.21 ± 0.095
- protein stability index (pdr5∆): 3.23 ± 0.15
- protein stability index (san1∆): 2.44 ± 0.28
- protein stability index (ubr1∆): 3.19 ± 0.054

Sequence: TIKILPENTAMFNPLHE [YMR129W/POM152]
- protein stability index (doa10∆): 2.42 ± 0.064
- protein stability index (pdr5∆): 2.36 ± 0.053
- protein stability index (san1∆): 2.36 ± 0.058
- protein stability index (ubr1∆): 2.5 ± 0.05

Sequence: TIRLWECGTGTTIHTFN [RPN14]
- protein stability index (doa10∆): 2.11 ± 0.18
- protein stability index (pdr5∆): 2.4 ± 0.11
- protein stability index (san1∆): 2.21 ± 0.12
- protein stability index (ubr1∆): 1.99 ± 0.13

Sequence: TIRYLMQKQHEMKTQAA [SNF6]
- protein stability index (doa10∆): 2.83 ± 0.049
- protein stability index (pdr5∆): 2.98 ± 0.051
- protein stability index (san1∆): 2.99 ± 0.046
- protein stability index (ubr1∆): 2.9 ± 0.032

Sequence: TISVPQIRDVMERFSVL [RRP6]
- protein stability index (doa10∆): 2.58 ± 0.094
- protein stability index (pdr5∆): 2.7 ± 0.097
- protein stability index (san1∆): 2.5 ± 0.12
- protein stability index (ubr1∆): 2.68 ± 0.13

Sequence: TITKRNGAFQNSSNLSY [RRP4]
- protein stability index (doa10∆): 3.04 ± 0.054
- protein stability index (pdr5∆): 3.02 ± 0.057
- protein stability index (san1∆): 3.1 ± 0.04
- protein stability index (ubr1∆): 3.11 ± 0.042

Sequence: TKDIFPLQNIHVRKVKL [RPS1A]
- protein stability index (doa10∆): 2.4 ± 0.084
- protein stability index (pdr5∆): 2.81 ± 0.097
- protein stability index (san1∆): 2.6 ± 0.072
- protein stability index (ubr1∆): 2.84 ± 0.09

Sequence: TKFKGGKRQLMKAVGEY [SEC65]
- protein stability index (doa10∆): 2.88 ± 0.098
- protein stability index (pdr5∆): 3.11 ± 0.11
- protein stability index (san1∆): 3.26 ± 0.056
- protein stability index (ubr1∆): 2.46 ± 0.088

Sequence: TKISTLAVKVHGGSRYA [QCR2]
- protein stability index (doa10∆): 1.34 ± 0.12
- protein stability index (pdr5∆): 1.64 ± 0.21
- protein stability index (san1∆): 1.18 ± 0.29
- protein stability index (ubr1∆): 1.41 ± 0.17

Sequence: TKLNLHCVIEDDESEQI [RRI1]
- protein stability index (doa10∆): 2.2 ± 0.29
- protein stability index (pdr5∆): 3.16 ± 0.17
- protein stability index (san1∆): 2.69 ± 0.12
- protein stability index (ubr1∆): 2.65 ± 0.15

Sequence: TKLTTCKRELAFVKQKN [YIL149C/MLP2]
- protein stability index (doa10∆): 1.84 ± 0.078
- protein stability index (pdr5∆): 1.81 ± 0.086
- protein stability index (san1∆): 1.54 ± 0.11
- protein stability index (ubr1∆): 1.48 ± 0.071

Sequence: TKNDAGSKQILKTEAAN [BRR2]
- protein stability index (doa10∆): 2.85 ± 0.055
- protein stability index (pdr5∆): 2.95 ± 0.054
- protein stability index (san1∆): 2.93 ± 0.039
- protein stability index (ubr1∆): 3.04 ± 0.055

Sequence: TKPAIRRLARRGGVKRI [HHF1]
- protein stability index (doa10∆): 3.04 ± 0.13
- protein stability index (pdr5∆): 3.12 ± 0.16
- protein stability index (san1∆): 3 ± 0.16
- protein stability index (ubr1∆): 3.45 ± 0.1

Sequence: TKPSETPATIVKKPTFT [YOR098C/NUP1]
- protein stability index (doa10∆): 2.91 ± 0.05
- protein stability index (pdr5∆): 3.08 ± 0.057
- protein stability index (san1∆): 3.09 ± 0.043
- protein stability index (ubr1∆): 3.04 ± 0.054

Sequence: TKSKNKTLIGLQGIVIW [POP4]
- protein stability index (doa10∆): 2.93 ± 0.05
- protein stability index (pdr5∆): 2.76 ± 0.051
- protein stability index (san1∆): 2.76 ± 0.044
- protein stability index (ubr1∆): 2.73 ± 0.034

Sequence: TKSSKEFFNTLRKSRET [RRI2]
- protein stability index (doa10∆): 2.63 ± 0.15
- protein stability index (pdr5∆): 3.42 ± 0.13
- protein stability index (san1∆): 3.06 ± 0.074
- protein stability index (ubr1∆): 2.92 ± 0.11

Sequence: TKVNNQLIKVAVHNGDR [RPL9B]
- protein stability index (doa10∆): 1.92 ± 0.074
- protein stability index (pdr5∆): 1.52 ± 0.06
- protein stability index (san1∆): 1.78 ± 0.086
- protein stability index (ubr1∆): 2.4 ± 0.029

Sequence: TLASLIRYNSVEIQEVP [RPC82]
- protein stability index (doa10∆): 2.62 ± 0.073
- protein stability index (pdr5∆): 2.59 ± 0.051
- protein stability index (san1∆): 2.48 ± 0.12
- protein stability index (ubr1∆): 2.54 ± 0.077

Sequence: TLDKKDSIPLRITNSFY [RPN9]
- protein stability index (doa10∆): 2.52 ± 0.13
- protein stability index (pdr5∆): 2.81 ± 0.11
- protein stability index (san1∆): 2.9 ± 0.096
- protein stability index (ubr1∆): 2.92 ± 0.13

Sequence: TLDVEAFKSVVSTETFE [RPL27A]
- protein stability index (doa10∆): 2.4 ± 0.069
- protein stability index (pdr5∆): 2.74 ± 0.051
- protein stability index (san1∆): 2.59 ± 0.051
- protein stability index (ubr1∆): 2.46 ± 0.053

Sequence: TLEDALRRIITDLNQDS [GRR1]
- protein stability index (doa10∆): 2.01 ± 0.074
- protein stability index (pdr5∆): 1.86 ± 0.063
- protein stability index (san1∆): 2.1 ± 0.067
- protein stability index (ubr1∆): 2.4 ± 0.053

Sequence: TLEDKFLLLAVNKYGLR [ISW2]
- protein stability index (doa10∆): 2.31 ± 0.058
- protein stability index (pdr5∆): 2.15 ± 0.058
- protein stability index (san1∆): 1.9 ± 0.11
- protein stability index (ubr1∆): 2.29 ± 0.049

Sequence: TLESLENLVVADLESFA [COR1]
- protein stability index (doa10∆): 2.47 ± 0.066
- protein stability index (pdr5∆): 2.67 ± 0.063
- protein stability index (san1∆): 2.44 ± 0.065
- protein stability index (ubr1∆): 2.3 ± 0.043

Sequence: TLGNLIRAELLNDRKVL [RPB11]
- protein stability index (doa10∆): 3.06 ± 0.17
- protein stability index (pdr5∆): 2.74 ± 0.25
- protein stability index (san1∆): 3.08 ± 0.15
- protein stability index (ubr1∆): 2.87 ± 0.23
